The record followed here is US20200369764A1 (INNATE PHARMA, published 2020).

One experiment addresses Human Siglec-7 (human) (UniProt Q9Y286). The experiment in a line: flow cytometry, fresh purified human NK cells (CD3-/CD56+), isotype control plot. In general terms: Flow cytometry measures light scatter and fluorescence of single cells or particles in a stream.
In experiment [1] the target is T1, Human Siglec-9 (human, UniProt Q9Y336 18-463).
T1 construct: on transfected CHO cells, YTS Siglec-9* cells, or native on primary NK cells and moDC (see assay); also called huSiglec-9; CD329
T1 sequence (Q9Y336 18-463): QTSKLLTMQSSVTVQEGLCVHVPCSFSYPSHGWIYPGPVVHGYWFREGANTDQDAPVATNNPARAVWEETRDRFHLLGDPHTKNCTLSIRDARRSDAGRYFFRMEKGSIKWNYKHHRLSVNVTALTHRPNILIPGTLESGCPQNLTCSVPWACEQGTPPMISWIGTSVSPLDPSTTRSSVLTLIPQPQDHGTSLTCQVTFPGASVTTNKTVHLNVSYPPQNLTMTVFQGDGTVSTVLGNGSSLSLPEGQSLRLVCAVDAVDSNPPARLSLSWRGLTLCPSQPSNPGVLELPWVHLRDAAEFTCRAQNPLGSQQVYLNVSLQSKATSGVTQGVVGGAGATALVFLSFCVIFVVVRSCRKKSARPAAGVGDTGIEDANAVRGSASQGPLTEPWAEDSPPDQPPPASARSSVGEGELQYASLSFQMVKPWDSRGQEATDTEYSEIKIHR
The experiment is described as above.

The target of experiment [2] is T1, Human Siglec-9. The experiment in a line: flow cytometry titration on moDC, neuraminidase-treated against untreated. As to the method:
moDC were desialylated for 2 hours with 25 mU neuraminidase (Roche Diagnostics).
Binding on moDCs and neuraminidase treated moDCs was tested in a titration experiment by flow cytometry. Cells were incubated 1h in Staining Buffer (SB) with primary antibodies at 10 μg/ml and a series of dilution of 1:10. They were washed two times with SB, then incubated 30 min with a Goat F(ab′)² Anti-Human IgG (Fc) PE (Jackson ImmunoResearch), and washed twice with SB.

Chain of Human Siglec-7 (human) (Q9Y286 19-467): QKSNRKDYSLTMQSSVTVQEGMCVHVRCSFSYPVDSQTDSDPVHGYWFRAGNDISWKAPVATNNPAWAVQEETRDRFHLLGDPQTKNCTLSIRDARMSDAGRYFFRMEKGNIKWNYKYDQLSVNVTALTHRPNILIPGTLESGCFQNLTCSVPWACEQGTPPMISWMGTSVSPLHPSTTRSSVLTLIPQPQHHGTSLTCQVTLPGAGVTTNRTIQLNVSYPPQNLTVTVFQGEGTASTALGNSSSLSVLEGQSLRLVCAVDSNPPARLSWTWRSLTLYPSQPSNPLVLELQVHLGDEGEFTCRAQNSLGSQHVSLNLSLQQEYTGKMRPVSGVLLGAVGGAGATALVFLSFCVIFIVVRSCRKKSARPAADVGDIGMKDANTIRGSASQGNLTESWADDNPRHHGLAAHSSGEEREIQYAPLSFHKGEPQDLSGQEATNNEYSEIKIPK

On to Isotype control - APC (antibody), for which, in the experiment with Human Siglec-7 (human), the % of NK cells in Q1 (APC positive, PE negative) turned out to be 0.975%; the % of NK cells in Q2 (APC positive and PE positive) stood at 0.34%.

In the experiment with Human Siglec-9 [1], Isotype control - PE (antibody) registered a % of NK cells in Q2 (APC positive and PE positive) of 0.34%; a % of NK cells in Q3 (PE positive, APC negative) of 2.54%.

B1: mAbC (antibody, V domains shown)
VH: QIQLVQSGPELKKPGETVKISCKASGYTFTNYEMNWVKEAPGKGLKWMGWINTYTGESTYADDFKGRFAFSLETSASTVYLQINNLKDEDVATYFCVRDDYGRSYGFAYWGQGTLVTVSA
VL: NIVLTQSPASLTVSLGQRANISCRASESVDSYGNSFMHWYQQKPGQPPKLLIYLASKLESGVPARFSGSGSRTDFTLTIDPVETDDAATYYCHQNNEDPPWTFGGGTKLEIK
notes: chimeric human IgG1, heavy chain N297Q (Kabat EU numbering)
B1: the “fold enhancement of EC50 on moDC after neuraminidase treatment” value (“fold enhancement of EC50 on moDC” below) in the experiment with Human Siglec-9 [2] amounted to 10 fold.

B2: mAbA (antibody, V domains shown)
VH: QVQLQQPGAELVKPGSPVKLSCKASYFTFTSYWMHWVRQRPGQGLEWIGEINPSNGHTNYNEKFESKATLTVDRSSSTAYMQLSSLTSEDSAVFYCANGVESYDFDDALDYWGQGTSVTVSS
VL: DIQMTQTTSSLSASLGDRVTISCRASQDINNYLNWYQQKPDGTIKLLIYYTSRLHSGVPSRFSGSGSGTDYSLTINNLEQEDIATYFCQQGNTLPFTFGGGTKLEIK
notes: as for B1
On to B2, for which, in the experiment with Human Siglec-9 [2], the “fold enhancement of EC50 on moDC” value was found to be 10 fold.

B3: mAbD (antibody, V domains shown)
VH: QIQLVQSGPELKKPGETVKISCKASGYTFTDYSMHWVKQAPGKGLKWMGWIITETGEPTYADDFRGRFAFSLETSANTAYLQINNLKNEDTATYFCARDFDGYWGQGTTLTVSS
VL: DILMTQSPASLSASVGETVTITCRASENIYSYLAWYQQKRGKSPQFLVYNAKTLTEGVPSRFRGSGSGTQFSLKINSLQPEDFGTYYCQHHYGFPWTFGGGTKLEIK
notes: as for B1
Turning to B3, the “fold enhancement of EC50 on moDC” value with Human Siglec-9 [2] came to 10 fold.
